Usually EC50 stands for the midpoint of the concentration-response curve. Read a low EC50 as a more potent agent.

The source of these data is patent US20060210473A1.

In assay [1] the target is human endoglin (human) (UniProt P17813). Put plainly: cell-based or functional assay.
The target is the same in assay [2]. Put plainly: indirect immunofluorescence, FACS on HUVEC, 10 µg/ml.
For assay [3] the target is unchanged. Put plainly: FACS on U937; one grade for both antibodies; + is CFI 5-25.
For assay [4] the target is unchanged. Description: FACS on HUVEC; one grade for both antibodies; ++++ is CFI >100.
For assay [5] the target is unchanged. Put plainly: FACS on HUVEC, concentration giving half-maximal fluorescence.
For assay [6] the target is unchanged. Put plainly: FACS on ECV-304; one grade for both antibodies; ++ is CFI 25-50.
Assay [7] shares this target. Description: FACS on A375M and T8 melanoma lines; one grade for both antibodies; + is CFI 5-25.
The target is the same in assay [8]. Put plainly: FACS on HT-1080 and SAOS-2 sarcoma lines; one grade for both antibodies; + is CFI 5-25.
For assay [9] the target is unchanged. Put plainly: FACS on L-endoglin fibroblast transfectant; one grade for both antibodies; +++ is CFI 50-100.
The target is the same in assay [10]. Put plainly: FACS on MDA-MB-231 and SKBR3 breast tumor lines; one grade for both antibodies; + is CFI 5-25.
Assay [11] shares this target. Put plainly: FACS competition on HUVEC; unlabelled TEC-11 against biotinylated TEC-4 (competitor), ratio 1:1.
The target is the same in assay [12]. Put plainly: FACS, 20 µg/ml TEC-11 on the sorted endoglin^hi fraction of postconfluent HUVEC; mean of 2 studies, SD 3.8. (In flow cytometry, cells or beads pass a laser one at a time.)
Assay [13] shares this target. Put plainly: FACS, 20 µg/ml TEC-11 on the sorted endoglin^lo fraction of postconfluent HUVEC; mean of 2 studies, SD 2.4.
For assay [14] the target is unchanged. Description: FACS competition on HUVEC; unlabelled TEC-4 against biotinylated TEC-11 (competitor), ratio 1:1.
For assay [15] the target is unchanged. Put plainly: FACS competition on HUVEC; unlabelled TEC-4 against biotinylated TEC-11 (competitor), ratio TEC-11:TEC-4 1:100.

In turn, TEC-11 (antibody) had a complement fixation, relative to TEC-4 in the assay with human endoglin (human) [1] of 100 fold. In the assay with human endoglin (human) [1], this substance yielded a complement-mediated lysis of HUVEC (trypan blue) of 50 % lysis. The substance further gave a specific mean fluorescence intensity (MFI) in the assay with human endoglin (human) [2] of 200 MFI. The corrected fluorescence intensity (CFI) is 5 to 25 cfi with human endoglin (human) [3]; more than 100 cfi with human endoglin (human) [4]; 25 to 50 cfi with human endoglin (human) [6]; 5 to 25 cfi in the assay with human endoglin (human) [7]; 5 to 25 cfi with human endoglin (human) [8]; 50 to 100 cfi with human endoglin (human) [9]. Moreover, the corrected fluorescence intensity (CFI) with human endoglin (human) [10] lay in the range of 5 to 25 cfi. The half-maximal effective concentration (EC50) with human endoglin (human) [5] was 0.4 µg/mL. Further, the percent blocking with human endoglin (human) [11] came to 51%. Moreover, the MFI with human endoglin (human) [12] came to 270 MFI; with human endoglin (human) [13] it was 61.6 MFI.

For TEC-4 (antibody), the complement-mediated lysis of HUVEC (trypan blue) with human endoglin (human) [1] came out at 48 % lysis. Moreover, the specific mean fluorescence intensity (MFI) in the assay with human endoglin (human) [2] amounted to 200 MFI. For the same substance, the corrected fluorescence intensity (CFI) with human endoglin (human) [3] was 5 to 25 cfi; with human endoglin (human) [4] it was more than 100 cfi; with human endoglin (human) [6] it was 25 to 50 cfi; with human endoglin (human) [7], 5 to 25 cfi; in the assay with human endoglin (human) [8], 5 to 25 cfi; in the assay with human endoglin (human) [9], 50 to 100 cfi. In the assay with human endoglin (human) [10], the corrected fluorescence intensity (CFI) lay in the range of 5 to 25 cfi. For the same substance, the EC50 with human endoglin (human) [5] worked out at 4 µg/mL. The percent blocking with human endoglin (human) [14] turned out to be 1%; with human endoglin (human) [15], 20%.
